Data on two variants can be found in IntAct's records for PubMed 17187064.

The labels stand for the following.
B1: A-type potassium channel modulatory protein KCNIP1 (Homo sapiens), Q9NZI2 (parent)
chain: MGAVMGTFSSLQTKQRRPSKDIAWWYYQYQRDKIEDELEMTMVCHRPEGLEQLEAQTNFTKRELQVLYRGFKNECPSGVVNEDTFKQIYAQFFPHGDASTYAHYLFNAFDTTQTGSVKFEDFVTALSILLRGTVHEKLRWTFNLYDINKDGYINKEEMMDIVKAIYDMMGKYTYPVLKEDTPRQHVDVFFQKMDKNKDGIVTLDEFLESCQEDDNIMRSLQLFQNVM
partner: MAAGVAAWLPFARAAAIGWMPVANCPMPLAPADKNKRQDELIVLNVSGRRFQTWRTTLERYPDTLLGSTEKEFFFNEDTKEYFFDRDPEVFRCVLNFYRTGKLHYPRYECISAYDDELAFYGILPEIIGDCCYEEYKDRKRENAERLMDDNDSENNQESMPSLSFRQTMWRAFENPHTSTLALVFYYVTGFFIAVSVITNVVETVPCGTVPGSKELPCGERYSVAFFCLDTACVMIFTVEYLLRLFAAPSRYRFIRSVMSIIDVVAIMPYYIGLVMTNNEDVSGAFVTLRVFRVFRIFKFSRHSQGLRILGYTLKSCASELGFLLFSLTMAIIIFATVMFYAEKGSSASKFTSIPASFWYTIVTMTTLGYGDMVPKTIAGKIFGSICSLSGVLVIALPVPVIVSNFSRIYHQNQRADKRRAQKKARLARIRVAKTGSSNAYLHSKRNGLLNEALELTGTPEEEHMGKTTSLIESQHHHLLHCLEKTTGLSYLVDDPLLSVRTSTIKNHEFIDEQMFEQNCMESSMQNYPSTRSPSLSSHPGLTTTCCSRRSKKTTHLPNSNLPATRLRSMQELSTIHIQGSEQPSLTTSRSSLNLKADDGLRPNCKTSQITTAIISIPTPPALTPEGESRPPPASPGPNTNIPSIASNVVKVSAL
B2: A-type voltage-gated potassium channel KCND3 (Homo sapiens), Q9UK17 (parent)
chain: B1 partner
partner: B1 chain

Variants of B1 are the subject of the first assay. The settings on record: with kcnd3_human KCND3, Q9UK17.
For V134E, the “effect of a mutation on the interaction” value is “disrupting interaction”.

Variants of B2 are the subject of the next assay. Particulars: with kcip1_human KCNIP1, Q9NZI2.
For W8E;P10E;A15E, the “effect of a mutation on the interaction” value is recorded as “disrupting interaction”.
